B1: ERO1-like protein alpha (Homo sapiens), Q96HE7 (parent)
chain: MGRGWGFLFGLLGAVWLLSSGHGEEQPPETAAQRCFCQVSGYLDDCTCDVETIDRFNNYRLFPRLQKLLESDYFRYYKVNLKRPCPFWNDISQCGRRDCAVKPCQSDEVPDGIKSASYKYSEEANNLIEECEQAERLGAVDESLSEETQKAVLQWTKHDDSSDNFCEADDIQSPEAEYVDLLLNPERYTGYKGPDAWKIWNVIYEENCFKPQTIKRPLNPLASGQGTSEENTFYSWLEGLCVEKRAFYRLISGLHASINVHLSARYLLQETWLEKKWGHNITEFQQRFDGILTEGEGPRRLKNLYFLYLIELRALSKVLPFFERPDFQLFTGNKIQDEENKMLLLEILHEIKSFPLHFDENSFFAGDKKEAHKLKEDFRLHFRNISRIMDCVGCFKCRLWGKLQTQGLGTALKILFSEKLIANMPESGPSYEFHLTRQEIVSLFNAFGRISTSVKELENFRNLLQNIH

Variants of: B1
Settings: with pdia1_human P4HB

Variant	effect of a mutation on the interaction
C94S	disrupting interaction
